Source: US20150104450A1

Tests used:
[1] = target: human CD86 extracellular domain with FLAG 10xhis tag (human); test: SPR (Biacore 2000), CTLA-4-Fc amine-coupled to CM5, ligand ECD as analyte, monovalent affinity
[2] = target: cynomolgus monkey CD86 extracellular domain with FLAG 10xhis tag (cynomolgus monkey); test: as above
[3] = target: human CD86 extracellular domain with FLAG 10xhis tag (human); test: SPR (Biacore 2000), ratio of KD
[4] = target: cynomolgus monkey CD86 extracellular domain with FLAG 10xhis tag (cynomolgus monkey); test: SPR (Biacore 2000), ratio of KD

Chain of cynomolgus monkey CD86 extracellular domain with FLAG 10xhis tag (cynomolgus monkey) (chain, as listed by the source limits assumed, form in doubt): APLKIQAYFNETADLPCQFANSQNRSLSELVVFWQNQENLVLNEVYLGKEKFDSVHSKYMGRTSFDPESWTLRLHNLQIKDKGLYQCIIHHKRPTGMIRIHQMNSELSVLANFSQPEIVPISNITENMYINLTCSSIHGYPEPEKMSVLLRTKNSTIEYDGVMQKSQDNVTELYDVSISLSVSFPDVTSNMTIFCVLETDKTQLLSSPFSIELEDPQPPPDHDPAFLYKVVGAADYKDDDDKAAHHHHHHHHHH
Chain of human CD86 extracellular domain with FLAG 10xhis tag (human) (chain, as listed by the source limits assumed, form in doubt): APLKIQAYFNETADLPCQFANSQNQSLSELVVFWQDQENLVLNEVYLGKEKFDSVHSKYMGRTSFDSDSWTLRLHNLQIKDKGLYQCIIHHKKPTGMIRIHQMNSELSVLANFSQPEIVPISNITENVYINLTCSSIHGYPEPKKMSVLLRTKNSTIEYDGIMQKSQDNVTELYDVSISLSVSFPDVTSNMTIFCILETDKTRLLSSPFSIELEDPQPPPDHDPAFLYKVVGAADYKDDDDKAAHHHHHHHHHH

- Kd [1]: 6.42 µM
- Kd [2]: 6.53 µM
- fold-improvement in affinity over wild type CTLA-4 in Fc fusion format [3]: 1 fold
- fold-improvement in affinity over wild type CTLA-4 in Fc fusion format [4]: 1 fold
Substance: wild type CTLA-4 (SEQ ID NO: 35) in Fc fusion format
